# In the supplement of paper PMC9170038:
# Test system: K4 kissing-loop RNA reporter
# Assay: apparent KD of K4 kissing-loop reporter; higher = weaker reporter binding
# Conditions: Eterna round: R107; input ligand: arginine 13.2 mM
# Method: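 RNA-MaP round R107: designed RNA switches with theophylline, tryptophan, arginine or FMN aptamers are transcribed on-chip within common flanks. They are titrated with a labelled K4 kissing-loop RNA reporter in RNA-MaP buffer (100 mM Tris pH 7.5, 80 mM KCl, 4 mM MgCl2), without ligand or with the indicated ligand. Median apparent KD per design.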
# 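Also: bound reporter read as fluorescence of individual clusters on recovered sequencing chips by microscopy, with normalized cluster intensities fitted with a binding model.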
row,Sequence,apparent KD of K4 kissing-loop reporter [µM]
1,ACGUGCCCAGUGAUGUUGGAUAAAUAUGAAGGAGCGUGCGAAAGCACAGGUAGGUCGCAUAAUAGCACGAGCCACGAAAGUGGCA [#SwitchBubble 7 #K4Early #Sliding],0.2
2,AUUUUGGUUUAGAGUGAUGUUCCUUGUGUUCGAGGACCGGUACGGCCGCCACUCGGGUAGAAAAGAAAAGAAAUGUUUGAUUUUU [BDazzled - #10 SS Tryptophan A],0.105
3,UUUAUGAGGUCGGCCGCCACUGGAUUUAUGUUUGUUUCGUCUGGAUCAAAGUGAUGUUUUGAGUCCAGGACCGGGACAUUUGUUA [whbob_Ex_Tryp_B_w40],0.0763
4,AAUAAUCUAGGUGAUACCAGCUCAACAUGAGUGAUGUUCAUGAAAUAAUGUAGAGUUGAGAGCCCUUGGCAGCACCUAGAUAAUA [KL-SSTheoB5],0.222
5,AUCGUUGUCUGAGGAUAUCGUUUUACUGUAGUGAUGUUACAGAAAAUUCACAUUAUAAUUUCUAUUCGAGAAGGCAGACUACGUA [JR_ExcFMNB_Sub015],0.112
6,GUAUCGCUAGGAGGAUAUUUCAAUUUGACUCUUUGAGUUUUUACGGAGUGAUGUUCCGUUUUACGGAAAGAAGGCCUAGUGAUAC [FMN B 15],0.138
7,UGAUAGGACAGAAGGAGCGGGAGUGAUGUUCCCAAAAGUAUAAGGUGUCAAAAGACACCCUCCCAGGUAGGUCGCUGUCCUAUCU,0.33
8,CGUUCCUCUGUCGAUACCAGCUUCAGUUGGCGGCCAGUGAUGUUGGUAUUGCCGAUGCCAAGCCCUUGGCAGCGAUAUGAGACCC [Aredi],0.403
9,GGUAGCAUGGCGGCCGCCACUAUCAGGAGUGAUGUUCCAACGCAGAGCUUCAGCUAGUGUGUAAAUAGGACCGGGCCAUGCUACC,0.0698
10,AAUUAAGUGACGGCCGCCACUAGGGUGAUUUUUUUGUUUGAGUGAUGUUUUGAUGUUUGAUUUUGUAGGACCGGGUUAGGUGAUG [juhmullin],0.295
11,AGUGAUGUGGGAAGGAGCGCUACAUCACUUCAGUGAUGUUGAAGUGAUGAAUUAGUGAUGUAGCAGGUAGGUCGCCUAGAUGUUA [KL-XARG-B12],0.0385
12,AUUAUAAAGUCGGCCGCCACUGAGAGUAGUGAUGUUACUCUUUUCCUUUAGAUAUUAUAUUUUAUCAGGACCGGGACAUCAGAUU [JR_ExcTryptoB_Sub020],0.17
13,GAUACGAAGCAGUGAUGUUGCUUAUGAGAAGGAGCGCACGAAAGUGCAGGUAGGUCGCUCAGCCAUGUGGACGAAAACGUCCACA [whbob_SS_Arginine_A_sa111],0.109
14,UCCUAGGCUCGAAAGAGCCUAGGAUUAUCUCAGGAUAUCCGGAAACGGAGAAGGGAGAAACUAGUGAUGUUAGGGAUUCCCUCUU,0.11
15,AUUCUGUUUUUGAUGUUUAUUGUAUAAUGGCAGGAUAUCGUAGAAGCGAGAAGGGCUUUUAUGCGUUAUGAGUGAUGUUUGUAGG [eyeefvmullin],0.26
16,UGAUAGGACAGAAGGAGCGGUAGUGAUGUUACCAAAAGGGUAAGGUGUCAAAAGACACCCUGCCAGGUAGGUCGCUGUCCUAUCU,0.0899
17,UUUAUUAAGACGGCCGCCACUGAUUCAUAGUGAUGUUAUGAUAUAAUCUUAGUGAUAUUUAUAAACAGGACCGGGUCAAUUAUUA [JR_SSTryptoB_Sub026],0.173
18,UGACUGGACUGAAGGAGCGCUAAAACUCCUAGUGAUGUUGGGAAAACGAGACAAAGUCUCGAGCAGGUAGGUCGCAGUCUAGUCU [ArgBS 22 #SwitchBubble #StaticStem],0.196
19,GAUUUAGAGGCGGCCGCCACUAGUGAUGUUAGUGAUGUUUGAUAGGGAAUAUAUCAGCGAGUAGAUAGGACCGGGCCAGAUGGAG [gtggbmullin],0.183
20,CCAAUCAGUUACGAUACCAGUCUAAUAUAUUUGAUCAAAACCCUCGCCGAGUGAUGUUCGGACCCUUGGCAGCGUCUGGGACAGG [fcctmullin],0.417
21,UUUUAAAUGUCUGAUACCAGAGAAAAUAUAUGUAGUGAUGUUACAUACAAAUUUAAUAAGCUCCCUUGGCAGCAGUAUGAAUUUU [AstrosExc-TheB#15],0.0667
22,AAAAUAAAAGCAGUCAUCGGAGUGAUGUUCCGAGGACCGGUACGGCCGCCACUCGACCAGACAAAGUCUGGAUGGCGAGACUGCA [#SwitchBubble 18 #K4Early],0.0851
23,CUUGGUCUACGAAGGAGCGCCGUGCAGUGAUGUUGCAGUCAGAUCGAGUGAUGUUUCGGGCGGCAGGUAGGUCGCGUGGCCCUUU [Excusion Arginine B GF 26],0.455
24,ACAGUACCGGGAAGGAGCGUGAAUGAGAAUGGAUAUAGUGAUGUUAUGUAUACGAACGAAUCGCAGGUAGGUCGCCCGGAUCCCU [SSArgB.aD],0.507
25,UGACUUGCCUGAGGAUAUCUAGGAUAUGGAUAAAAUAAAAUAAUAAUGGAGUGAUGUUCCAGAAGGAGAGAAGGCAGGUAAGUCU [KL-XFMN-B16 #DoubleAptamer #SwitchBubble],0.116
26,CAUAAAAGGUGGAAGACGAAUCGGUGUCGCCGAGGACCGGUACGGCCGCCACUCGGUCAUCAAAUCCUUCCCGAGUGAUGUUCGA [theeternabot_sameState_KL_Trp_A_5],0.439
27,AGCGAGUGAUGUUCGCUGAUCAUGAGAAGUUAGGAUAUAUACUUGCAUAGAAGGAACUAUUUCAUGACAUUAGAGGCAGUAGUUC [FMN A SS t7],0.16
